Laboratory results published in publication PMC10016340.

Columns and labels:
Cofilin-1 (human) = Cofilin-1 (human) (UniProt P23528); assay: SPR
[1] = molecular target: Ubiquitin carboxyl-terminal hydrolase isozyme L1 (UCH-L1) (human) (UniProt P09936); assay: SPR
Chain of Ubiquitin carboxyl-terminal hydrolase isozyme L1 (UCH-L1) (human) (P09936 whole entry): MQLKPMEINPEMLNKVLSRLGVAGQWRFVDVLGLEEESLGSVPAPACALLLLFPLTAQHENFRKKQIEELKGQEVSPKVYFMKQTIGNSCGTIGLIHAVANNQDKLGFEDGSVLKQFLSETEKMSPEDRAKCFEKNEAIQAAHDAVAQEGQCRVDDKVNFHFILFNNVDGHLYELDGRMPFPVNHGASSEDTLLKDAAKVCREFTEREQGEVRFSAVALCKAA

Chain of Cofilin-1 (human) (P23528 whole entry): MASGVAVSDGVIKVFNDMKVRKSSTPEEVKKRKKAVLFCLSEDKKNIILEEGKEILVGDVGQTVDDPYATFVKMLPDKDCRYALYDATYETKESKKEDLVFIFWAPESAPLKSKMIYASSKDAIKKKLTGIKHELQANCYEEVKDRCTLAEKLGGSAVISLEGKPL

## α-synuclein oligomers (αSOs) (from UniProt P37840 1-140) (complex)
Cofilin-1 (human)
  Kd: 290 nM
[1]
  Kd: 600 nM
